From patent US20070020717A1

How the values were obtained:
Details in all cases: chains peptide; modification not given
[1] = biological target: T1, GST-PDZ fusion protein, PDZ domain of SHANK1 (GID 7025450), D3YZU1; test: ELISA
T1 chain: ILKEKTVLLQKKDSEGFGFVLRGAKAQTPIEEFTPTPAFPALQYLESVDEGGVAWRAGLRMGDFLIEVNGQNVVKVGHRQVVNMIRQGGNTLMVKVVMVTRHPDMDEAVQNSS

[2] = biological target: T2, GST-PDZ fusion protein, PDZ domain of SHANK2 (GID 6049185), Q9UPX8; test: ELISA
T2 chain: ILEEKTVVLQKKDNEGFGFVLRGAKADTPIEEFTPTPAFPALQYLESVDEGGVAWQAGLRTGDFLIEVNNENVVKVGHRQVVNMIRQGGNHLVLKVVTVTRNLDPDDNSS

[3] = biological target: T3, GST-PDZ fusion protein, PDZ domain of MAST2 (Accession no. AB047005), Q6P0Q8; test: ELISA (G Assay)
T3 chain: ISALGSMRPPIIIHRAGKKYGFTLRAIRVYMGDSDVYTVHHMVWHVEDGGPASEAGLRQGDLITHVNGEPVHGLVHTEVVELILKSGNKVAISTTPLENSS

B1: Peptide 1957 (peptide)
chain: RRRSGLDDINPTVLLKERSTEL
- EC50 [1]: 66.3 µM
- EC50 [2]: 62 µM
- EC50 [3]: 23.1 µM
